Data reported in PMC2671406 (PLoS ONE, 2009).

Experiments:
Details in all cases: both partners purified
[1] = biological target: T1, Human (vertebrate) calmodulin (human, UniProt P0DP23 1-149); test: SEC; CaM (200 µl at 176 µM) on Superdex 75 HR 10/30 with and without excess (625 µM) CnA-CBD peptide; 50 mM HEPES pH 7.5, 150 mM NaCl, 4 mM CaCl2
T1 construct: also called CaM

[2] = biological target: T1, Human (vertebrate) calmodulin; test: ITC; CaM (0.1 mM) in the cell, CnA-CBD peptide (1 mM) in the syringe, 5 µl injections; +35°C; 10 mM HEPES pH 7.5, 100 mM NaCl, 10 mM CaCl2
[3] = biological target: T1, Human (vertebrate) calmodulin; test: ITC; CaM (0.1 mM) in the cell, CnA-CBD peptide (1 mM) in the syringe, 5 µl injections; +30°C; 10 mM HEPES pH 7.5, 100 mM NaCl, 10 mM CaCl2

stoichiometry N [1]: 1 | Ka [2]: 1.4e+06 M⁻¹ | Kd [2]: 700 nM | dH [2]: -5.7 kcal/mol | Ka [3]: 3.5e+06 M⁻¹ | Kd [3]: 300 nM | dH [3]: -1.8 kcal/mol
B1: Peptide corresponding to the CaM binding domain of calcineurin A (residues 395-411) (peptide)
peptide: VIRNKIRAIGKMARVFS
notes: also called CnA-CBD; CnA-CBD peptide; source: bought: GL Biochem (Shanghai, China)
